Data set [1] can be described thus: Nitric oxide release from diazeniumdiolated materials. In kind it is physicochemical. As for the experimental part: Nitric oxide release of the presently disclosed NO-releasing particles was measured according to the following general procedure. Referring now to FIG. 12, a predetermined volume of phosphate buffer solution (PBS) (pH 7.4, 37° C.) was disposed in a receptacle, e.g., a round-bottomed flask. The receptacle was sealed, leaving an inlet for nitrogen gas and an outlet for a mixture of nitrogen and nitric oxide. The outlet was in fluid communication with a chemiluminescence nitric oxide analyzer. An aliquot of a solution containing a diazeniumdiolated species was injected into the PBS buffer. The chemiluminescence nitric oxide analyzer measured the amount of NO that reacted with ozone (O3) to form excited NO2*, which emitted electromagnetic radiation (hv) as shown in Scheme 2. […] NO2*→NO2+hv Scheme 2. Measurement of NO by chemiluminescence.
NO release from a variety of NO-releasing materials was measured according to the procedure outlined in Example 3. The diazeniumdiolated fumed silica particles were prepared as described in Example 9, below, grafting the fumed silica surface to N-(6-aminohexyl)-3-aminopropyltrimethoxysilane, followed by diazeniumdiolation of the secondary amine with NO gas.

The subject of data set [2] is A2780 ovarian epithelial tumor cells. The data set can be described thus: MTT cell viability assay, A2780 cells. It counts as cell-based, human. The conditions noted are these: small molecule NO donor; cell line not named in the sentence (b369 names OVCAR-3 for PYRRO/NO). How it is done:
To evaluate the tumoricidal potential of NO donor silica nanoparticles, the cytotoxicity of control and NO-releasing silica particles on immortalized normal (T29) and cancer (A2780 and OVCAR-3) human ovarian epithelial cells was tested. MTT cell viability assays were performed as described below. The 3-(4,5-dimethylthiazol-2-yl-)-2,5-diphenyltetrazoliumbromide (MTT) proliferation assay was employed to determine the relative sensitivities of OVCAR-3 cells to PYRRO/NO. Cells were seeded in 6 replicates at 1−5×10^3 cells/well in 96-well microtiter plates, incubated overnight, and exposed to concentrations of NO donor and control pyrrolidine solutions for 48 h. The NO-releasing medium was then removed and replaced by MTT solution, upon which the cells were incubated for an additional 4 h at 37° C. Following removal of the MTT, DMSO was added, and the absorption of the solution was measured at 560 nm using a microplate reader.
To investigate whether nanoparticle size affects cytotoxicity, two silica nanoparticles (75 mol % MAP3, balance TEOS) of different particle size (80 and 350 nm in diameter, hereafter referred to as s-MAP3 and L-MAP3, respectively) were synthesized. […] Cell viability was determined by incubating T29 and A2780 with non NO-releasing control MAP3 particle (80 nm), s-MAP3, or L-MAP3 (0.4 mg/mL) for 48 h. […]
On the technique in general: Formazan colour is commonly taken as a measure of viable cells.

We go through two compounds from US8282967B2, “Nitric oxide-releasing particles for nitric oxide therapeutics and biomedical applications” (The University of North Carolina at Chapel Hill, priority 2005, dated 2012).

Consider “Proteins (Bovine serum albumin (BSA): diazeniumdiolated bovine serum albumin”, for which, in data set [1], the “NO Released” value was 0.54 mmol NO/g and the tv2 was 7.2E4. min. In the case of `[Na+].[O-]N=[N+]([O-])N1CCCC1` [PYRRO/NO], in data set [2], the “Cytotoxic NO concentration” value was 4.4 mM NO.
